Measurements published in patent publication US20250236663A1.

What was measured:
[1] = molecular target: Recombinant human FAM19A5 protein (His-tagged) (human) (UniProt Q7Z5A7); test: ELISA, N'-Term His; set-up: unit not given here
[2] = molecular target: Recombinant human FAM19A5 protein (His-tagged) (human) (UniProt Q7Z5A7); test: ELISA, N'-Term His; R² 0.9422
[3] = molecular target: FAM19A5 epitope fragment F1 (BSA-conjugated) (human); test: ELISA on the coated BSA-conjugated fragment
[4] = molecular target: FAM19A5 epitope fragment F2 (BSA-conjugated) (human); test: ELISA on the coated BSA-conjugated fragment
[5] = molecular target: FAM19A5 epitope fragment F3 (BSA-conjugated) (human); test: ELISA on the coated BSA-conjugated fragment
[6] = molecular target: FAM19A5 epitope fragment F4 (BSA-conjugated) (human); test: ELISA on the coated BSA-conjugated fragment
[7] = molecular target: FAM19A5 epitope fragment F6 (BSA-conjugated) (human); test: ELISA on the coated BSA-conjugated fragment
[8] = molecular target: Recombinant human FAM19A5 protein (His-tagged) (human) (UniProt Q7Z5A7); test: ELISA on coated His-tagged FAM19A5 (positive control); the bar ends at the top of the axis

Bmax [1]: 1.73 | Kd [2]: 7.64 nM | O.D (492nm) [3]: 0.139 | O.D (492nm) [4]: 0.394 | O.D (492nm) [5]: 0.224 | O.D (492nm) [6]: 0.162 | O.D (492nm) [7]: 0.139 | O.D (492nm) [8]: 4
B1: Anti-FAM19A5 (P2-C12) (antibody, V domains shown)
VH: QSLEESGGRLVTPGTPLTLTCTVSGFSLSTYAVTWVRQAPGKGLEWIGYINWRGGTSYANWAKGRFTISKTSSTTVDLKMTSPTTEDTATYFCARDASSGAAFGSYGMDPWGPGTLVTVSS
VL: ELDMTQTPSSVSAAVGGTVTIKCQASQSISSYLSWYQQKPGQPPKLLIYEASKLASGVPSRFSGSGYGTEFTLTISDLECADAATYYCQQGYSSTNVWNAFGGGTNVEIK
